Assay [1] concerns the target human mGluR5 extracellular domain (human-mGluR5-ECD) (human) (UniProt P41594). Briefly: HTRF, soluble ECD.
For assay [2] the target is unchanged. Briefly: HTRF, soluble ECD. The source holds these as a separate data set.
Assay [3] addresses full-length (FL) human mGluR5 on BA/F3-mGluR5 clone 10C9 cells (human) (UniProt P41594). Briefly: cell-based or functional assay.
In assay [4] the target is T1, rat mGluR5 extracellular domain (rat-mGluR5-ECD) (rat, UniProt P31424 21-504).
T1 construct: ECD construct made 'in a similar fashion' to the human one
T1 sequence (P31424 other isoform, or with tags, fused parts or gaps limits assumed, form in doubt): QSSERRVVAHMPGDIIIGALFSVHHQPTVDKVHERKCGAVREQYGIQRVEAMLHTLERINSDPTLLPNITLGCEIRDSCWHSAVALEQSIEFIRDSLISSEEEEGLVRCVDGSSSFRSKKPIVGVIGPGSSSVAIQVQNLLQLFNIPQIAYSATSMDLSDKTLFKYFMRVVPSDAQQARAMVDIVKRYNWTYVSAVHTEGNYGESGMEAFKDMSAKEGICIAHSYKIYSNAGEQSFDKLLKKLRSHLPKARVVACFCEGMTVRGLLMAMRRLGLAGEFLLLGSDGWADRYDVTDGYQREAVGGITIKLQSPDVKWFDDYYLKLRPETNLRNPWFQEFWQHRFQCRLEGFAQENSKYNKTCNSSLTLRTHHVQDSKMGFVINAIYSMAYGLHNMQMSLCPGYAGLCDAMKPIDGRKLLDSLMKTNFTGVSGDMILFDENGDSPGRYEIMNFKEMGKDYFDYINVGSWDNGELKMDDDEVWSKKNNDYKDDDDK
The experiment in a line: HTRF, soluble ECD. The protocol: (§1) Binding of antibodies to mGluR5/mGluRJ measured via Homogeneous Time-Resolved Fluorescence (HTRF). Binding assays were performed using HTRF reagents from CisBio. Ten microliters of an antibody dilution series (highest final concentration of 30 nM) was incubated with 10 μl of mGluR-ECD (10 nM final concentration) in HTRF buffer (50 mM Phosphate buffer pH7, 0.8M KF (potassium fluoride), 0.2% BSA). Twenty microliters of Europium-labeled anti-hu-Fc donor (2 nM final concentration, CisBio Catalog No. 61HFCKLB) and 20 μl of XL665-labeled anti-Flag acceptor (60 nM final concentration, CisBio Catalog No. 61FG2XLB) were added to each well and incubated for 1 hour at room temperature. Alternatively, the antibody dilution series was incubated with 10 μl of biotinylated mGluR-ECD (10 nM final concentration), and 20 μl of Europium-labeled anti-hu-Fc donor (2 nM final concentration) and 20 μl of d2-labeled streptavidin acceptor (60 nM final concentration, CisBio Catalog No. 610SADLB) were added to each well. Fluorescence was measured at 620 and 665 nm with a delay of 300 μsec. Results were expressed as the ratio of signal at 665 nm over 620 nm. EC₅₀ values were calculated for binding of Ab1-Ab23 to human-mGluR5-ECD, of Ab1-Ab21 to rat-mGluR5-ECD, and of Ab1, Ab2 and Ab4-Ab12 to monkey-mGluR5-ECD and to human-mGluR1-ECD (TABLE 1).

Assay [5] deals with T2, cynomolgus monkey mGluR5 extracellular domain (monkey-mGluR5-ECD) (cynomolgus monkey, UniProt P41594 21-580 (human entry), limits assumed).
T2 construct: ECD construct made 'in a similar fashion' to the human one; also called cyno-mGluR5
T2 sequence (P41594 other isoform, or with tags, fused parts or gaps limits assumed): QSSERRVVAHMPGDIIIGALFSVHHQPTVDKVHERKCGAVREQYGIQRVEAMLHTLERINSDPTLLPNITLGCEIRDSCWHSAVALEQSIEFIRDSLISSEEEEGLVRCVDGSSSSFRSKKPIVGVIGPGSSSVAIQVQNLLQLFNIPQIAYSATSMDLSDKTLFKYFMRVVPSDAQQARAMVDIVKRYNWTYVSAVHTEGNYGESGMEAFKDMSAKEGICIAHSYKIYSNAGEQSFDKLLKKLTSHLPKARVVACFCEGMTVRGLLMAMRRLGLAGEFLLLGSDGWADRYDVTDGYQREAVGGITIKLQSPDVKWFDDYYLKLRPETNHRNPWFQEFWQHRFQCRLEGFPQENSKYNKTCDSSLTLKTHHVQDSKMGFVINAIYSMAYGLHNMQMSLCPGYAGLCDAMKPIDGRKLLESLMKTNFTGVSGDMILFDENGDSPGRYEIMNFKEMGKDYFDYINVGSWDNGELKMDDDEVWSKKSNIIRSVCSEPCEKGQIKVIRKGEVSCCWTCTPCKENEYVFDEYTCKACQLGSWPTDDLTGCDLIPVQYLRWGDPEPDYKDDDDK
The experiment in a line: HTRF, soluble ECD. Here is the method:
as §1
In general terms: In TR-FRET formats the signal depends on donor and acceptor labels being close together.

Assay [6] deals with T3, human mGluR1 extracellular domain (human-mGluR1-ECD) (human, UniProt Q13255 19-592, limits assumed).
T3 construct: ECD construct made 'in a similar fashion' to the human mGluR5 one; also called hu-mGluR1
T3 sequence (Q13255 other isoform, or with tags, fused parts or gaps limits assumed): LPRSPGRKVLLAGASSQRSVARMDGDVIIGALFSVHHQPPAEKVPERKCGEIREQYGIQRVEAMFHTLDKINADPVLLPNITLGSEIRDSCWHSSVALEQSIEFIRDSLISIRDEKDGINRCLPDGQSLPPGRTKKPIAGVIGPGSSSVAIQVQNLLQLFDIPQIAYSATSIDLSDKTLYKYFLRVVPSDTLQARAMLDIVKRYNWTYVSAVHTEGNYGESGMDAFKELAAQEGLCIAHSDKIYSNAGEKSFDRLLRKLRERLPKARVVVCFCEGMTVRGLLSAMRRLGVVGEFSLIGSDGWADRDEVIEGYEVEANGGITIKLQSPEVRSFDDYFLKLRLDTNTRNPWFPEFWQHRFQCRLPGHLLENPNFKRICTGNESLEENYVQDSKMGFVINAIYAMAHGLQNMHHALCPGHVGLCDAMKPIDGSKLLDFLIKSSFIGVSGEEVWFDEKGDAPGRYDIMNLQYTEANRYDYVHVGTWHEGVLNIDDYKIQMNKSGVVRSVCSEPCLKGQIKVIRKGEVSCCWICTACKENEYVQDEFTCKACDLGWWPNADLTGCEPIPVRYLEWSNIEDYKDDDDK
The experiment in a line: HTRF, soluble ECD. The protocol: as §1

For assay [7], the target named is full-length (FL) human mGluR5 on BA/F3-mGluR5 clone 10C9 cells (human) (UniProt P41594). Briefly: flow cytometry, BA/F3-mGluR5 10C9 cells, 10 ug/ml antibody. A general note: Flow cytometry measures light scatter and fluorescence of single cells or particles in a stream.
The target in assay [8] is human mGluR5 extracellular domain (human-mGluR5-ECD) (human) (UniProt P41594). Briefly: AlphaLISA, biotinylated ECD.
human mGluR5 extracellular domain (human-mGluR5-ECD) (human), sequence (P41594 other isoform, or with tags, fused parts or gaps): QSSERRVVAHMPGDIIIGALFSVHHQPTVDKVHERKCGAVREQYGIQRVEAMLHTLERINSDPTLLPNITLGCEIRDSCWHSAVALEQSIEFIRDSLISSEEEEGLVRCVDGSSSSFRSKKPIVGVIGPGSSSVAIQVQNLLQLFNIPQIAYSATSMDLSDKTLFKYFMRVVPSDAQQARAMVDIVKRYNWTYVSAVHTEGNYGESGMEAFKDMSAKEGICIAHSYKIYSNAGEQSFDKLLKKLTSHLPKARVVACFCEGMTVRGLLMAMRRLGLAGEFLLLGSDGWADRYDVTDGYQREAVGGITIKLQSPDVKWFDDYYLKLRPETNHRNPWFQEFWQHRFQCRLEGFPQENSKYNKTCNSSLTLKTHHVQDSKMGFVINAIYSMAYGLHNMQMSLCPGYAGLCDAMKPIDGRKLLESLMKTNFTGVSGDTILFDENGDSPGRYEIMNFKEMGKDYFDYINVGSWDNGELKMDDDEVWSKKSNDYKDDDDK
The target is the same in assay [9]. The experiment in a line: AlphaLISA, biotinylated ECD. The source holds these as a separate data set. (In general: In Alpha technology, singlet oxygen from a donor bead excites a nearby acceptor bead.)

B1: mGluR5 Ab2 (antibody, V domains shown)
VH: QQQLEESGGGLVKPGGTLTLTCKASGIDFSGYYYMCWVRQAPGKGLEWIACVYTGDGGTYYASWAKGRFTISKTSSTTVTLQMTSLTAADTATYFCARGSGVGSYGYNLWGQGTLVTVSS
VL: DIVMTQTPASVEAAVGGTVTIKCQASESIYSNLAWYQQKPGQPPKLLIYRASNLESGVPSRFKGSGSGTEFTLTISDLECADAATYYCQGYYAITTTNAFGGGTEVVVKR
notes: Rabbit variable regions on human heavy and light chain constant regions (chimeric)
As to B1, the EC50 in assay [1] is 0.341 nM; in assay [2], < 2 nM; in assay [4], 0.476 nM; in assay [5], 0.36 nM. Besides, the pERK Assay Inhibition IC50-nM in assay [3] is 0.16 nM. In assay [6], the binding result is “no binding”. The same molecule returned a mGluR5 (FL) cell binding-fold over background in assay [7] of 40.3 fold.

B2: mGluR5 Ab26 (antibody, V domains shown)
VH: QSVEESGGGLVKPEGSLTLTCKASGFDLSSYYYMCWVRQAPGKGPEWIACIYAGDGTTYYASWAKGRFTISKTSSTTVTLQMTSLTAADTATYFCARGTGVGSYGYNLWGPGTLVTVSS
VL: DIVMTQTPASVEAAVGGTVTIKCQASENIYSNLAWYQQKPGQPPKLLIYRASNLESGVPSRFKGSGSGTEFTLTISDLECDDAATYYCQGYYPSAVTNAFGGGTEVVVKR
The molecule B2 returned a pERK Assay Inhibition IC50-nM in assay [3] of 0.1 nM. For the same molecule, the figures for the concentration giving a half-maximal response (EC50) in assay [8] and in assay [9] were 0.101 nM and < 2 nM, respectively. The molecule further gave a mGluR5 (FL) cell binding-fold over background in assay [7] of 39.4 fold.

B3: mGluR5 Ab24 (antibody, V domains shown)
VH: QQQLEESGGGLVKPGGTLTLTCKASGIDFSNVYYMCWVRQAPGKGPEWIACIYVGDGSTYDASWARGRFTISKTSSTTVTLQMISLTAADTATYFCAGGTGVGSYGYSLWGPGTLVTVSS
VL: DIVMTQTPASVEAAVGGTVTIKCQASESIYSNLAWYHQKPGQPPKLLIYRASNLESGVPSRFKGSGSGTDFTLTISDLECADAATYYCQGYYASVVTNGFGGGTEVVVKR
For the molecule B3, the pERK Assay Inhibition IC50-nM in assay [3] came to 0.1 nM. Besides, the EC50 in assay [8] is 0.0947 nM; in assay [9], < 2 nM. In addition, in [7], the mGluR5 (FL) cell binding-fold over background is 37.2 fold.

B4: mGluR5 Ab25 (antibody, V domains shown)
VH: QRQLEESGGGLVKPGGALTLTCKASGIDFSSYYYRCWVRQAPGKGLEWIACIYTGDGTTYYASWAKGRFTTSKTSSTTVTLQMTSLTAADTATYFCARGSGVGSYGYNFWGPGTLVTVSS
VL: DIVMTQTPASVEAAVGGTVTIKCQASESIYSNLAWYQQKPGQPPKLLIYRASTLESGVPSRFKGSGSGTEFTLTISDLECADAATYYCQGYYASIITNAFGGGTEVVVKR
B4: in assay [3], the pERK Assay Inhibition IC50-nM is 0.11 nM. Moreover, the EC50 in assay [8] was 0.0915 nM; in assay [9] it was < 2 nM. Also, the mGluR5 (FL) cell binding-fold over background in [7] amounted to 37.9 fold.

B5: mGluR5 Ab5 (antibody, V domains shown)
VH: QEQLVESGGGLVQPEGSLTLTCTASGIDFSSGYFMCWVRQAPGKGLEWIACISPYSDNTWYANWAKGRFTISKTSSTTVTLQMTSLTAADTAAYRCARTMAIGAYNPFKLWGQGTLVTVSS
VL: ALVMTQTPSSVSAAVGGTVTINCQASQNIYSNLAWYQQKPGQRPKLLIYDASDLASGVSSRVKGSGSGTEFTLTISDLECADAATYYCQGYYSGNAFGGGTEVVVKR
notes: as for B1
Regarding B5, the EC50 in [1] was 0.54 nM; in assay [2] it was < 2 nM; in assay [4], 0.311 nM; in assay [5] it was 0.31 nM. The molecule also yielded a pERK Assay Inhibition IC50-nM in [3] of 1.51 nM. In assay [6], the binding result is “no binding”. In assay [7], this molecule returned a mGluR5 (FL) cell binding-fold over background of 36.3 fold.

B6: mGluR5 Ab10 (antibody, V domains shown)
VH: QSLEESGGRLVTPGTPLTLTCTVSGIDLSSYAVGWVRQAPGKGLEYIGIIYASGNTWYASWVKGRFTISKTSTTVDLKMTSLTTEDTATYFCARGHGATYDYFNLWGPGTLVTVSS
VL: AYDMTQTPASVEVAVGGTVTIKCQASQSISSWLAWYQQKPGQPPKLLIYDASDLASGVPSRFKGSGSGTEYTLTISGVQCDDAATYYCQQGLATANVDNVFGGGTEVVVKR
notes: as for B1
In the case of B6, the concentration giving a half-maximal response (EC50) in [1] was 0.409 nM; in assay [2], < 2 nM; in assay [4], 0.848 nM; in assay [5] it was 0.339 nM. For the same molecule, in assay [3], the pERK Assay Inhibition IC50-nM is 1.07 nM. For the same molecule, in assay [6], the binding result is “no binding”. The molecule also yielded a mGluR5 (FL) cell binding-fold over background in assay [7] of 27.9 fold.

B7: mGluR5 Ab12 (antibody, V domains shown)
VH: QSVEESGGRLVTPGTPLTLTCTVSGIDLSSNAMGWVRQAPGKGLEWIGIIYASGNAWYANWVKGRFTISKTSTTVDLKITSPTTEDTATYFCARDATATWDYFNLWGQGTLVTVSS
VL: AYDMTQTPSSVSAAVGGTVTIKCQASQSISNWLSWYQQKPGQPPKLLIYRASTLASGVSSRFSGSGSGTEFTLTISDLECADAATYYCQQGYSVANVDNAFGGGTEVVVKR
notes: as for B1
On to B7, for which the EC50 was 0.775 nM in [1], < 2 nM in assay [2], 0.991 nM in [4] and 0.359 nM in [5]. This molecule yielded a pERK Assay Inhibition IC50-nM in assay [3] of 3.73 nM. Moreover, the binding result in assay [6] is on record as “no binding”. For the same molecule, the mGluR5 (FL) cell binding-fold over background in [7] was found to be 31.9 fold.

B8: mGluR5 Ab9 (antibody, V domains shown)
VH: QSVEESGGRLVTPGTPLTLTCTVSGFSLNNYAMNWIRQAPGKGLEWIGIIYGSGSTYYASWAKGRFTASKTSTTVDLKMTSLTTEDTATYFCARDELAAGINYFTLWGQGTLVTVSS
VL: ALVMTQTPASVEVAVGGTVTIKCQASQNIIDWCSWYQQKLGQPPKLLIYEASKLASGVPSRFKGSGSGTQFTLTISGVECADAATYYCQQGYSPSGVDNVFGGGTEVVVKR
notes: as for B1
As for B8, the half-maximal effective concentration (EC50) in assay [1] was 0.998 nM; in assay [2], < 2 nM; in assay [4] it was 0.519 nM; in assay [5] it was 0.398 nM. The molecule also registered a pERK Assay Inhibition IC50-nM in [3] of 2.97 nM. Also, in assay [6], the binding result was “no binding”. Moreover, in [7], the mGluR5 (FL) cell binding-fold over background came to 28.4 fold.

B9: mGluR5 Ab11 (antibody, V domains shown)
VH: QSLEESGGGLVKPGGTLTLTCTASGFSFSSSYWICWVRQAPGKGLEWIGCIYGSTDAYNANWAKGRFAISQTSSTTVTLQMTSLPAADTATYFCARHDGDIGWTLDLWGPGTLVTVSS
VL: AYDMTQTPASVEVAVGGTVTIKCQASLTIGTRLAWYQQKPGQPPKLLIYKASTLASGVSSRFKGSGSGTQFALTISDLECADAATYYCQQAAYVTDIDNAFGGGTEVVVKR
notes: as for B1
Regarding B9, the concentration giving a half-maximal response (EC50) in assay [1] was 0.545 nM; in assay [2] it was < 2 nM; in assay [4] it was 0.423 nM; in assay [5], 0.255 nM. This molecule also had a pERK Assay Inhibition IC50-nM in assay [3] of 0.14 nM. Also, the binding result in [6] is “no binding”. The same molecule had a mGluR5 (FL) cell binding-fold over background in assay [7] of 37 fold.

B10: mGluR5 Ab7 (antibody, V domains shown)
VH: QSVEESGGRLVTPGTPLTLTCTVSGFSLSRYAMGWVRHVPGKGLEWIGIIYASGSTYYASWAKGRFTISKTSTTVDLKITSPTTEDTATYFCARSRTATYDAVDPWGPGTLVTVSS
VL: AYDMTQTPASVSEPVGGTVTIKCQASQSISSYLSWYQQKPGQPPKLLIYEASTLASGVSSRFKGSGSGTEYTLTISDLECDDAAAYYCQQDLSGSNLDNSFGGGTEVVVKR
notes: as for B1
Consider B10, for which the EC50 in [1] was 1.02 nM; in [2], < 2 nM; in [4], 0.63 nM; in assay [5], 0.37 nM. The molecule also yielded a pERK Assay Inhibition IC50-nM in assay [3] of 1.34 nM. For the same molecule, the binding result in assay [6] is listed as “no binding”. In addition, the mGluR5 (FL) cell binding-fold over background in assay [7] was found to be 28.9 fold.

B11: mGluR5 Ab6 (antibody, V domains shown)
VH: QSLEESGGRLVTPGGTLTLTCTVSGIDLSSYAMSWVRQAPGKGLEWIGIIYASGNTWYANWVKGRFTISKTSTTVDLKMTSPTTEDTATYFCARDSSATFNYLDLWGQGTLVTVSS
VL: AFHMTQTPASMEVAVGGTVTMKCQASESIDTYLNWYQQKPGQPPKLLIYQASKLASGVPSRFKGSGSGTEFTLTISGVECADAATYYCQQGWSTNDVDNVFGGGTEVVVKR
notes: as for B1
Turning to B11, the EC50 in [1] was 0.415 nM; in [2], < 2 nM; in [4], 0.771 nM; in [5], 0.424 nM. Further, the pERK Assay Inhibition IC50-nM in assay [3] stood at 4.29 nM. Also, the binding result in [6] is “no binding”. In assay [7], this molecule yielded a mGluR5 (FL) cell binding-fold over background of 24.4 fold.

In general, EC50 refers to the concentration that produces a half-maximal response.

For the origin of these results see patent US20220306734A1 (H LUNDBECK A S, published 2022).
